Experimental data reported in patent US11414646 (QURATIS, dated 2022).

Biological target: T1, Toll-like receptor 4 (TLR4) of mouse bone marrow-derived dendritic cells (mouse, UniProt Q9QUK6 26-835)
T1 construct: whole, on cells; also called TLR (toll-like receptor)-4
T1 sequence: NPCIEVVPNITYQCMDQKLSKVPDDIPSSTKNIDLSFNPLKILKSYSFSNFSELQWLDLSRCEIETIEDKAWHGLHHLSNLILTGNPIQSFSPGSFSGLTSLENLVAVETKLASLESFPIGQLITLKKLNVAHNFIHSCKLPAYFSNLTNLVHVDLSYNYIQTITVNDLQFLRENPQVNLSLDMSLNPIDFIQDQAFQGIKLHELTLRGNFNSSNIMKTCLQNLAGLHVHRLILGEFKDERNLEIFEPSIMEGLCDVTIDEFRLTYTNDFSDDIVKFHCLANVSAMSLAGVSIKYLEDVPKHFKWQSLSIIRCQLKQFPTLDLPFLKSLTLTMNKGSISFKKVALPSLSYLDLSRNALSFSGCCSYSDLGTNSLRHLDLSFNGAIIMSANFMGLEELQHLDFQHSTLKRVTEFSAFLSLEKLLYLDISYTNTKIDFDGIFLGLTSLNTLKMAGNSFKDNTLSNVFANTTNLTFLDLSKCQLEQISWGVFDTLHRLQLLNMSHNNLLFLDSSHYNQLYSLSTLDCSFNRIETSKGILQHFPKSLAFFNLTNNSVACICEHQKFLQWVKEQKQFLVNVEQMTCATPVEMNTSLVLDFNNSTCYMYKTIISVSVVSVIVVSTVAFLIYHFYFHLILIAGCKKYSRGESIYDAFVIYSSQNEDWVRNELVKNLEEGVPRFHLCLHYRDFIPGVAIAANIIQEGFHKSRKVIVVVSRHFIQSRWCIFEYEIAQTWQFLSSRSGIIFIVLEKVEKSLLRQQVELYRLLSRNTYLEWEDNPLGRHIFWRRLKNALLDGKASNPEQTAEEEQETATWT
Experiment: figure legend for FIGS. 3D-3F: confocal microscopy, FACS and immunoprecipitation

B1: Recombinant Rv2299c protein (His-tagged, Mycobacterium tuberculosis H37Rv, expressed in E. coli BL21) (ligand)
chain: MNAHVEQLEFQAEARQLLDLMVHSVYSNKDAFLRELISNASDALDKLRIEALRNKDLEVDTSDLHIEIDADKAARTLTVRDNGIGMAREEVVDLIGTLAKSGTAELRAQLREAKNAAASEELIGQFGIGFYSSFMVADKVQLLTRKAGESAATRWESSGEGTYTIESVEDAPQGTSVTLHLKPEDAEDDLHDYTSEWKIRNLVKKYSDFIAWPIRMDVERRTPASQEEGGEGGEETVTIETETLNSMKALWARPKEEVSEQEYKEFYKHVAHAWDDPLEIIAMKAEGTFEYQALLFIPSHAPFDLFDRDAHVGIQLYVKRVFIMGDCDQLMPEYLRFVKGVVDAQDMSLNVSREILQQDRQIKAIRRRLTKKVLSTIKDVQSSRPEDYRTFWTQFGRVLKEGLLSDIDNRETLLGISSFVSTYSEEEPTTLAEYVERMKDGQQQIFYATGETRQQLLKSPHLEAFKAKGYEVLLLTDPVDEVWVGMVPEFDGKPLQSVAKGEVDLSSEEDTSEAEREERQKEFADLLTWLQETLSDHVKEVRLSTRLTESPACLITDAFGMTPALARIYRASGQEVPVGKRILELNPSHPLVTGLRQAHQDRADDAEKSLAETAELLYGTALLAEGGALEDPARFAELLAERLARTL
notes: also called Rv2299c (His); HSP90 family protein
B1: binds.
